Broadly, the Kd is the equilibrium constant for the complex coming apart. Higher therefore signals lower affinity.

Experiment [1] concerns the target T1, ASAP1 ZA domain (Arf GAP domain and ankyrin repeats), residues 447-724 of ASAP1 (UniProt Q9QWY8 447-724).
T1 construct: Mouse is stated only for the PH domain constructs; the same residue numbers are used; Isotopically labelled in the PRE experiment; also called ^ΔPHZA; isolated ZA domain
T1 sequence (looked up): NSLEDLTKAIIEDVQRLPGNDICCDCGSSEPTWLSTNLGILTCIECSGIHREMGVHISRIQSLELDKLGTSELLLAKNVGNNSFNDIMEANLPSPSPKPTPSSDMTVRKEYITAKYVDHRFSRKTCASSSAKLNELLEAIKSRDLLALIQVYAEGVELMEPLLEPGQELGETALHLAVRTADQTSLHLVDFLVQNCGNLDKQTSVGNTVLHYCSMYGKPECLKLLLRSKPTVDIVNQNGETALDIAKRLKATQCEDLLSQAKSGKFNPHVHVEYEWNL
The experiment can be described thus: intermolecular PRE NMR; Cys159-MTSL myrArf1 (non-hydrolysable GTP analog), alone or in complex with wt PH, on nanodiscs; 100 μM Arf or Arf:PH and 100 μM isotopically labeled ZA. The settings on record: both partners purified.

In experiment [2] the target is T2, N-myristoylated human Arf1 bound to GTPγS, anchored on nanodiscs (myrArf1·GTPγS) (human, UniProt P84077 1-181, N-terminal myristoyl).
T2 construct: human Arf1, Uniprot P84077; also called Arf·GTP
Nature of the experiment: not stated; binding of PH variants and Arf variants compared with wild type (Fig. SI8 and Table SI1); the method is not given. The settings on record: both partners purified.

Experiment [3] concerns the target T2, N-myristoylated human Arf1 bound to …. The experiment can be described thus: cell-based or functional assay.
Experiment [4] concerns the target T3, MTSL-tagged myrArf1 with Lys73 replaced by Cys (Cys159 mutated to Ala), GTPγS, on nanodiscs (human, UniProt P84077 1-181, Cys159 mutated to Ala | Lys73 replaced with Cys, N-terminal myristoyl; MTSL nitroxide spin label on Cys73 via a disulfide bond).
T3 construct: human Arf1, Uniprot P84077, mono-cysteine variant; also called spin-labeled myrArf1 variant (Lys73 to Cys); source: E. coli BL21 Star (DE3), co-expressed with yeast NMT, purified; spin-labelled on nanodiscs
Nature of the experiment: intermolecular PRE NMR; 60 μM protiated MTSL-labelled myrArf1 variants on nanodiscs, 50 μM methyl-labelled ASAP1 PH, 25 °C; paramagnetic against ascorbate-reduced sample. The settings on record: both partners purified.

For experiment [5], the target named is T4, MTSL-tagged myrArf1 K38C (Cys159 mutated to Ala), GTPγS, on nanodiscs (human, UniProt P84077 1-181, Cys159 mutated to Ala | K38C, N-terminal myristoyl; MTSL nitroxide spin label on Cys38 via a disulfide bond).
T4 construct: human Arf1, Uniprot P84077, mono-cysteine variant; source: E. coli BL21 Star (DE3), co-expressed with yeast NMT, purified; spin-labelled on nanodiscs
The experiment is described as above. The settings on record: both partners purified.

Experiment [6] has as its target T5, myrArf1 Glu54Ala (human, UniProt P84077 1-181, Glu54Ala, N-terminal myristoyl).
T5 construct: human Arf1, Uniprot P84077; also called Glu54Ala in Arf; source: E. coli BL21 (DE3), co-expressed with yeast NMT, purified
The experiment can be described thus: not stated; binding of PH variants and Arf variants compared with wild type (Fig. SI8 and Table SI1); the method is not given. To be noted: both partners purified.

For experiment [7], the target named is T5, myrArf1 Glu54Ala. The experiment can be described thus: cell-based or functional assay.

T2 sequence (P84077 whole entry): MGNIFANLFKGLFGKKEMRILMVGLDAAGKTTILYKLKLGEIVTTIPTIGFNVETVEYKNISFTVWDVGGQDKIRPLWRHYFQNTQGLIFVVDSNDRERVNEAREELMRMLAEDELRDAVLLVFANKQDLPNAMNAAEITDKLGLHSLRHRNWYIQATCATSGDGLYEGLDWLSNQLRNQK
T5 sequence (P84077 whole entry E54A): as the sequence (P84077 whole entry) above, with E54A counted along it
T3 sequence (P84077 other isoform, or with tags, fused parts or gaps with the stated changes): as the sequence (P84077 whole entry) above, with K73C, C159A counted along it
T4 sequence (P84077 other isoform, or with tags, fused parts or gaps with the stated changes): as the sequence (P84077 whole entry) above, with K38C, C159A counted along it

B1: Cys159-MTSL tagged myrArf1 bound to a non-hydrolysable GTP analog, on nanodiscs (natural protein)
chain: not shown
modifications: N-terminal myristoyl; MTSL nitroxide spin label on Cys159
notes: human Arf1, Uniprot P84077, native Cys159 spin-labelled; source: E. coli BL21 Star (DE3), co-expressed with yeast NMT, purified; spin-labelled on nanodiscs
B1 registered a Kd in experiment [1] of 100 to 1000 µM.

B2: ΔN14 ASAP1 PH domain, [339-451]ASAP1 (domain or fragment, mouse, UniProt Q9QWY8 339-451, looked up)
chain: GSEKKGFLLKKSDGIRKVWQRRKCAVKNGILTISHATSNRQPAKLNLLTCQVKPNAEDKKSFDLISHNRTYHFQAEDEQDYIAWISVLTNSKEEALTMAFRGEQSTGENSLED
notes: mouse ASAP1, PH domain with shortened N-terminal extension, residues 339-451; tied by counting 14 residues from 325; also called ^ΔN14PH; source: E. coli BL21 Star (DE3) or BL21 (DE3), purified (HiTrap SP, SEC)
On to B2, for which the “fold weaker binding than wt PH” value in experiment [2] turned out to be 2 fold. In addition, the “fold decrease in GAP activity compared with PH” value in experiment [3] is 100 fold.

B3: wild-type ASAP1 PH domain, [325-451]ASAP1 (domain or fragment, mouse, UniProt Q9QWY8 325-451, looked up)
chain: GGYSMHQLQGNKEYGSEKKGFLLKKSDGIRKVWQRRKCAVKNGILTISHATSNRQPAKLNLLTCQVKPNAEDKKSFDLISHNRTYHFQAEDEQDYIAWISVLTNSKEEALTMAFRGEQSTGENSLED
notes: mouse ASAP1, PH domain with its N-terminal extension, residues 325-451; also called wt PH
In the case of B3, the binding result in experiment [4] and in experiment [5] was “binds” in each case. The “fold reduction of binding against wild type” value in experiment [6] amounted to 2 fold. In addition, the “fold decrease in GAP activity on Arf1 Glu54Ala compared with wild type (C50 of PZA, Fig. 7C)” value in experiment [7] worked out at 70 fold.

These data come from article PMC12485133, “An active allosteric mechanism in ASAP1-mediated Arf1 GTP hydrolysis redefines PH domain function” (Nature Communications, 2025).
